72 sequences from the supplement of paper PMC10567573 can be followed below.

This data set in a line: protein stability index of a GFP-peptide fusion (GPS, HEK-293T) (PSI 1-6); higher = more stable. The note with it: c terminus: a fixed tail appended.

± gives the standard deviation.
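Note: 24-mer peptide tiles fused after GFP, lentivirally expressed, FACS-sorted into six equal bins by GFP/DsRed ratio, decoded by Illumina sequencing, PSI is the read-weighted mean bin number.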

Turning to NLDKMADNLLAAADKYALERLKVM [SPOPL], the protein stability index is, setting by setting: (treatment: DMSO) 3.1 ± 0.44; (treatment: MLN4924 1 uM, 8 h) 3.04 ± 0.42.
The matching figures for NLGDALDSSNSMQTIQKTTTRRIV [KRT18]: 4.38 ± 0.19 and 4.51 ± 0.28.
NMSLTALREKLLEAEQSLRNLEDI [TEKT4] displayed a protein stability index (treatment: DMSO) of 3.29 ± 0.47 and a protein stability index (treatment: MLN4924 1 uM, 8 h) of 3.43 ± 0.46.
As to NNEEQRSGLIYLTNHIAPHARNGL [IKZF1], the protein stability index was found to be 3.34 ± 0.33 (treatment: DMSO) and 3.52 ± 0.2 (treatment: MLN4924 1 uM, 8 h).
The matching figures for NNGIFQINSRRWCSNLTPNVPNVC [SPACA3]: 2.6 ± 0.28 and 2.63 ± 0.25.
The sequence NQAGYFMLPTVITDIKDESCCMTE [ALDH8A1] returned a protein stability index (treatment: DMSO) of 3.5 ± 0.13 and a protein stability index (treatment: MLN4924 1 uM, 8 h) of 3.71 ± 0.43.
The matching figures for NQVSSNSWGIAGETELALVKESGE [DLC1]: 5.17 ± 0.41 and 5.23 ± 0.2.
With NRNQGLNRLMLAVRDMMANFHLND [TCF25], the protein stability index by setting is: (treatment: DMSO) 2.1 ± 0.16; (treatment: MLN4924 1 uM, 8 h) 2.24 ± 0.37.
The matching figures for NRRDVEAWFFSKTEELNKEVASNT [KRT15]: 4.05 ± 0.26 and 4.12 ± 0.23.
On the same counts, the results for NRVVVSGLPPSGSWQDLKDHMREA [SRSF1] are 3.93 ± 0.094 and 4.03 ± 0.12.
As to NSGHTIFNDPFFIVETVCIVWFSF [KCNA4], the protein stability index is, setting by setting: (treatment: DMSO) 3.49 ± 0.58; (treatment: MLN4924 1 uM, 8 h) 3.51 ± 0.31.
The matching figures for NSKPCISLNGPLSTSRHVMAPVMA [ADAMTS4]: 2.83 ± 0.39 and 3.12 ± 0.19.
On the same counts, the results for NSRRNINYRSFEPILRLLPQGISP [ZER1] are 2.3 ± 0.2 and 2.54 ± 0.17.
On the same counts, the results for NSSEELSSALHLSKGMSIFLDILR [NECAB1] are 2.38 ± 0.13 and 2.54 ± 0.21.
As for NTGKTYFFVANKYWRYDEYKRSMD [MMP1], the protein stability index runs as follows: (treatment: DMSO) 1.98 ± 0.17; (treatment: MLN4924 1 uM, 8 h) 2.2 ± 0.19.
For NTKAEMEMSLAEELNHGRQGENQE [FATE1], the protein stability index by setting is: (treatment: DMSO) 5.53 ± 0.16; (treatment: MLN4924 1 uM, 8 h) 5.64 ± 0.12.
The matching figures for NTNTLKVPECRLAEDLGNLWENTR [SPOPL]: 3.22 ± 0.26 and 3.41 ± 0.34.
The matching figures for NVPLSISRLTPGGKAAQAGVAVGD [PDLIM7]: 4.05 ± 0.23 and 4.18 ± 0.13.
Turning to NVTNLEGGPGRQTTSPNVLWPTPG [ESR2], the protein stability index runs as follows: (treatment: DMSO) 3.17 ± 0.35; (treatment: MLN4924 1 uM, 8 h) 3.17 ± 0.37.
On the same counts, the results for NWGNGKRPNLETYYERVLKRKTFN [GDAP1] are 2.57 ± 0.12 and 2.79 ± 0.52.
On the same counts, the results for PAICALRHLTSRHQEAEMAQNAVR [CTNNB1] are 3.2 ± 0.5 and 3.67 ± 0.32.
On the same counts, the results for PAPASSTPQEPWPGPTAPSPTSRP [PDLIM7] are 5.07 ± 0.093 and 5.13 ± 0.22.
Turning to PASGASSIKPEASQMPPPAGGTSD [SCNN1D], the protein stability index runs as follows: (treatment: DMSO) 5.43 ± 0.14; (treatment: MLN4924 1 uM, 8 h) 5.45 ± 0.19.
PDLESGSESGADTISVNQTRVNLS [DLC1]: the protein stability index runs as follows: (treatment: DMSO) 5.12 ± 0.26; (treatment: MLN4924 1 uM, 8 h) 5.16 ± 0.2.
On the same counts, the results for PDLLPTDYRKQLQYPNPLPVLSGA [VPS39] are 3.34 ± 0.4 and 3.43 ± 0.14.
Take PDPLNICVFILLLVFIVVKCFTSE [RTP4]: the protein stability index runs as follows: (treatment: DMSO) 2.97 ± 1.2; (treatment: MLN4924 1 uM, 8 h) 2.72 ± 0.81.
The matching figures for PDRASGPEGSLSQTMAGSSPNTPQ [FAM104A]: 5.3 ± 0.21 and 5.34 ± 0.2.
Consider PEEKKEEEGSANRRPEDQELESLS [CHGA], for which the protein stability index is, setting by setting: (treatment: DMSO) 5.58 ± 0.34; (treatment: MLN4924 1 uM, 8 h) 5.71 ± 0.12.
Turning to PEGGMEQALAGASSGRELGRPKEL [ZNF263], the protein stability index reads like this: (treatment: DMSO) 4.92 ± 0.11; (treatment: MLN4924 1 uM, 8 h) 5.29 ± 0.17.
As to PESADTGDKSESPDEANVGKHPKD [TOR1AIP2], the protein stability index amounted to 5.57 ± 0.14 (treatment: DMSO) and 5.601 ± 0.053 (treatment: MLN4924 1 uM, 8 h).
On the same counts, the results for PETLPESSLFSVEANSSNSQKNEK [C8orf76] are 5.54 ± 0.14 and 5.41 ± 0.4.
Regarding PETVMTTLYTAKKYAVPALEAHCV [BTBD1], the protein stability index runs as follows: (treatment: DMSO) 2.7 ± 0.13; (treatment: MLN4924 1 uM, 8 h) 2.83 ± 0.15.
The matching figures for PEVVQHEEFILLSQGEVEKLIKCD [KLHL12]: 3.99 ± 0.4 and 3.86 ± 0.75.
On the same counts, the results for PFLLLFLGNFFTTLRVVHHKFHSQ [TMEM120A] are 3.28 ± 0.37 and 3.1 ± 0.22.
Regarding PGESLECPAELRPQVPQPPSPAAV [TRAF3IP2], the protein stability index by setting is: (treatment: DMSO) 5.31 ± 0.077; (treatment: MLN4924 1 uM, 8 h) 5.18 ± 0.43.
PGKLFIGGLNRETNEKMLKAVFGK [RBMY1A1] registered a protein stability index (treatment: DMSO) of 2.69 ± 0.12 and a protein stability index (treatment: MLN4924 1 uM, 8 h) of 2.86 ± 0.14.
Consider PGLGQESKAPGSCDPGTDPCPEDA [TLE6], for which the protein stability index (treatment: DMSO) was 5.65 ± 0.27 and the protein stability index (treatment: MLN4924 1 uM, 8 h) stood at 5.55 ± 0.22.
On to PGSGPGHGSGSHPGPASGPGPDTG [SPAG8], for which the protein stability index reads like this: (treatment: DMSO) 5.36 ± 0.16; (treatment: MLN4924 1 uM, 8 h) 5.34 ± 0.069.
Consider PHAPPFAGGHPAQLGLGRGASTFK [JUNB], for which the protein stability index reads like this: (treatment: DMSO) 4.11 ± 0.083; (treatment: MLN4924 1 uM, 8 h) 4.34 ± 0.066.
On the same counts, the results for PIGILTTSYCELLQNKVPLLGSST [PPTC7] are 2.63 ± 0.53 and 2.66 ± 0.47.
In the case of PKPADFRNPGPGRHRLITQVYLSH [INTS4], the protein stability index is 2.59 ± 0.17 (treatment: DMSO) and 2.57 ± 0.24 (treatment: MLN4924 1 uM, 8 h).
On the same counts, the results for PKRLRCWEEEEDHEKERPEHKSLE [FANCE] are 5.32 ± 0.17 and 5.37 ± 0.33.
The matching figures for PKSLVRLSLEAVICFKEMLANSWN [KLHDC2]: 2.41 ± 0.65 and 2.49 ± 0.3.
The matching figures for PLELMRTKLQAQHVSYRELGACVR [SLC25A39]: 2.67 ± 0.24 and 2.92 ± 0.16.
Regarding PLKLHYQLRNVRERLAKNLVEKGV [GOLPH3], the protein stability index by setting is: (treatment: DMSO) 2.4 ± 0.15; (treatment: MLN4924 1 uM, 8 h) 2.7 ± 0.3.
Regarding PLLLFTYLNSFLHQRIPQSVRILG [SLC29A1], the protein stability index is, setting by setting: (treatment: DMSO) 2.96 ± 0.54; (treatment: MLN4924 1 uM, 8 h) 2.97 ± 0.54.
With PLPGKAFLRQLPFRGDDGIFDDNF [SNX3], the protein stability index runs as follows: (treatment: DMSO) 3.47 ± 0.23; (treatment: MLN4924 1 uM, 8 h) 3.41 ± 0.47.
The matching figures for PNTYYEGGYFKARLKFPIDYPYSP [CDC34]: 2.32 ± 0.17 and 2.39 ± 0.21.
The matching figures for PNVIEYYENFLEDKALMIAMEYAP [NEK8]: 2.32 ± 0.21 and 2.25 ± 0.21.
The matching figures for PPGGSGSEPYKLLPGAVATIVKPL [HNF4A]: 3.59 ± 0.11 and 3.58 ± 0.18.
Consider PPPPPNEINPPPHTMEEEEDDDWG [EIF5], for which the protein stability index is, setting by setting: (treatment: DMSO) 5.48 ± 0.17; (treatment: MLN4924 1 uM, 8 h) 5.61 ± 0.22.
On the same counts, the results for PPRIPQADQWKSSNKSLVEALGLE [RHOBTB1] are 4.45 ± 0.27 and 4.33 ± 0.26.
For the sequence PPSSGNGPAPPPLPPALVPAGGLA [WAS], the protein stability index (treatment: DMSO) amounted to 4.66 ± 0.47 and the protein stability index (treatment: MLN4924 1 uM, 8 h) turned out to be 4.67 ± 0.29.
Take PPVWYLKEEDHYQRARKEREKEDY [RHOBTB2]: the protein stability index (treatment: DMSO) is 5.16 ± 0.12 and the protein stability index (treatment: MLN4924 1 uM, 8 h) stood at 5.22 ± 0.16.
Regarding PRASISHVTCVDQSEHTMVLRCQL [C2CD2L], the protein stability index runs as follows: (treatment: DMSO) 2.34 ± 0.26; (treatment: MLN4924 1 uM, 8 h) 2.26 ± 0.28.
The matching figures for PRIWSLAHTATASAVEGAPPARPR [IRX6]: 4.44 ± 0.26 and 4.43 ± 0.11.
With PRPRRAKRFASLSRFVETLVVADD [ADAMTS4], the protein stability index is, setting by setting: (treatment: DMSO) 3.65 ± 0.45; (treatment: MLN4924 1 uM, 8 h) 3.69 ± 0.12.
Regarding PSGSLENGTKADGKDAKTTNGHGG [TRIM29], the protein stability index runs as follows: (treatment: DMSO) 5.26 ± 0.45; (treatment: MLN4924 1 uM, 8 h) 5.58 ± 0.35.
The matching figures for PSRREPPPRRSRSRSHDRLPYQRR [CLK3]: 5.23 ± 0.19 and 5.23 ± 0.14.
As for PSSSGHLADSDTLSSAEENEPSQA [C18orf25], the protein stability index runs as follows: (treatment: DMSO) 5.56 ± 0.22; (treatment: MLN4924 1 uM, 8 h) 5.52 ± 0.11.
On the same counts, the results for PSVKYLSHPRVQSGCDKEALLTGG [RNF180] are 3.99 ± 0.28 and 4.04 ± 0.29.
On the same counts, the results for PVPPGWNPNSSSGKGSGGNAGSYI [DLX1] are 3.86 ± 0.21 and 3.93 ± 0.24.
Take PYFRAMFTGELAESRQTEVVIRDI [KLHL20]: the protein stability index was 2.77 ± 0.25 (treatment: DMSO) and 3.09 ± 0.19 (treatment: MLN4924 1 uM, 8 h).
Regarding PYKREEEALEERRLSRGEIPTLQR [PKD2L1], the protein stability index (treatment: DMSO) came to 4.76 ± 0.31 and the protein stability index (treatment: MLN4924 1 uM, 8 h) worked out at 4.82 ± 0.27.
On the same counts, the results for QAAVAAGDVHTVRKMLEQGYSPNG [ASB7] are 4.09 ± 0.31 and 4.11 ± 0.12.
The sequence QALRENTYPFLAMIMLKDRRMTVV [FAF2] displayed a protein stability index (treatment: DMSO) of 2.23 ± 0.31 and a protein stability index (treatment: MLN4924 1 uM, 8 h) of 1.96 ± 0.21.
The matching figures for QAPPADFIPAHVAFDKKVLKFDAY [EFHC1]: 3.01 ± 0.38 and 2.98 ± 0.28.
On the same counts, the results for QDAPLSDCTETIEGLELTEQTFSP [ADD1] are 5.46 ± 0.21 and 5.3 ± 0.23.
Turning to QDDHDHKVQELMSTHELEKKELEE [MTUS2], the protein stability index stood at 5.59 ± 0.29 (treatment: DMSO) and 5.59 ± 0.33 (treatment: MLN4924 1 uM, 8 h).
QDLCCRTIVSCTPVHLVDKLPLPS [RAB40A]: the protein stability index (treatment: DMSO) was found to be 2.34 ± 0.26 and the protein stability index (treatment: MLN4924 1 uM, 8 h) amounted to 2.39 ± 0.35.
On the same counts, the results for QDTELPKAEECDTITLNCPRNSDM [EDARADD] are 5.32 ± 0.29 and 5.42 ± 0.27.
On the same counts, the results for QEGAASKVLGRLRALSDTTEELTV [SLC2A12] are 4.46 ± 0.31 and 4.65 ± 0.37.
